Reference: patent US20120189639A1 (Merck Sharp & Dohme, published 2012)
Each block holds one binder with its values, some of them ahead of it.

How the values were obtained:
[1] = target: T1, human GITR on naïve CD4+ T cells (human, UniProt Q9Y5U5 26-241); assay: cell-based or functional assay
T1 sequence: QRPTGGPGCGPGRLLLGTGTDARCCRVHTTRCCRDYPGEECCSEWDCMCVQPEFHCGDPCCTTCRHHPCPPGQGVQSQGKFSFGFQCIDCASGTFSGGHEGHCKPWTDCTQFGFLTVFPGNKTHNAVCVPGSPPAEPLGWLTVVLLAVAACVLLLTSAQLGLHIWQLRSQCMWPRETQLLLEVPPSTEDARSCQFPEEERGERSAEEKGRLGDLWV

hGITR-hIgG [2] = target: T2, hGITR-hIgG (human, UniProt Q9Y5U5 26-161, limits assumed); assay: BIAcore SPR; hGITR-hIgG capture antigen, mAb analyte
T2 construct: not shown: human IgG part of the fusion
T2 sequence: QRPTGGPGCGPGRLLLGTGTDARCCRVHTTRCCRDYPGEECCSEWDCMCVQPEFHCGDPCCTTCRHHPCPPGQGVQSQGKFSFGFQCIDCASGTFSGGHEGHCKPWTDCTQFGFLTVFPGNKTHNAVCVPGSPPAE
Experimental: (§1) BIAcore determinations are performed essentially as described at Example 4 of co-pending, commonly assigned U.S. patent application Ser. No. 11/511,635 (filed 29 Aug. 2006). Briefly, binding partners are immobilized on a BIAcore CM5 sensor chip using standard amine-coupling procedure. Kinetic constants for the various interactions are determined using BIAevaluation software 3.1. The Kd is determined using the calculated dissociation and association rate constants.

hGITR-hIgG [3] = target: T2, hGITR-hIgG; assay: BIAcore SPR; hGITR-hIgG capture antigen, mAb analyte; apparent Kd
Experimental: as §1

B2: 49A1 (antibody, V domains shown)
VH: EVQLQESGPSLVKPSQTLSLTCSVTGDSITSGYWNWIRKFPGNKFEYMGFISYSGNTYYNPSLRSRISITRDTSKNQYFLHLNSVTTEDTATYYCSRRHLISGYGWFAYWGQGTLVTVSA
VL: VIVMTQSHKFMSTSIGDRVNITCKASQDVISAVAWYQQKPGQSPKLLIYWASTRHTGVPDRFTGSGSGTDFTLTINSVQAEDRALYYCQQHSYTPPWTFGGGTNLEIKR
notes: Parental rodent anti-human GITR monoclonal antibody from a hybridoma; kappa VL; also called 49A1.B1
- proliferation of naïve CD4+ T cells, mean, at 0.4 ng/mL Ab [1]: 54300
- proliferation of naïve CD4+ T cells, mean, at 0.9 ng/mL Ab [1]: 54100
- proliferation of naïve CD4+ T cells, mean, at 2.2 ng/mL Ab [1]: 61100
- proliferation of naïve CD4+ T cells, mean, at 5.2 ng/mL Ab [1]: 72200
- proliferation of naïve CD4+ T cells, mean, at 12.6 ng/mL Ab [1]: 86000
- proliferation of naïve CD4+ T cells, mean, at 30.1 ng/mL Ab [1]: 95500
- proliferation of naïve CD4+ T cells, mean, at 72.3 ng/mL Ab [1]: 96100
- proliferation of naïve CD4+ T cells, mean, at 173.6 ng/mL Ab [1]: 93600
- proliferation of naïve CD4+ T cells, mean, at 416.7 ng/mL Ab [1]: 86300
- proliferation of naïve CD4+ T cells, mean, at 1000.0 ng/mL Ab [1]: 78000
- koff (hGITR-hIgG [2]): 0.000318 s⁻¹
- kon (hGITR-hIgG [2]): 478000 M⁻¹ s⁻¹
- Kd (hGITR-hIgG [3]): 0.665 nM

B3: 9E5 (antibody, V domains shown)
VH: QVTLKESGPGILQPSQTLSLTCTFSGFSLSTYGVGVGWIRQPSGKGLEWLANIWWDDDNYYNPSLIHRLTVSKDTSNNQAFLKITNVDTAETATYYCAQIKEPRDWFFEFWGPGTMVSVSS
VL: DIQMTQTPSSMPASLGERVTIFCRASQGVNNFLTWYQQKPDGTIKPLIFYTSNLQSGVPSRFSGSGSGTDYSLSISSLEPEDFAMYYCQQYHGFPNTFGAGTKLELKR
notes: Parental rodent anti-human GITR monoclonal antibody from a hybridoma; kappa VL; also called 9E5.C1
- proliferation of naïve CD4+ T cells, mean, at 0.4 ng/mL Ab [1]: 60100
- proliferation of naïve CD4+ T cells, mean, at 0.9 ng/mL Ab [1]: 60900
- proliferation of naïve CD4+ T cells, mean, at 2.2 ng/mL Ab [1]: 69200
- proliferation of naïve CD4+ T cells, mean, at 5.2 ng/mL Ab [1]: 77700
- proliferation of naïve CD4+ T cells, mean, at 12.6 ng/mL Ab [1]: 85700
- proliferation of naïve CD4+ T cells, mean, at 30.1 ng/mL Ab [1]: 83400
- proliferation of naïve CD4+ T cells, mean, at 72.3 ng/mL Ab [1]: 85300
- proliferation of naïve CD4+ T cells, mean, at 173.6 ng/mL Ab [1]: 84600
- proliferation of naïve CD4+ T cells, mean, at 416.7 ng/mL Ab [1]: 79700
- proliferation of naïve CD4+ T cells, mean, at 1000.0 ng/mL Ab [1]: 83600
- koff (hGITR-hIgG [2]): 2.7e-05 s⁻¹
- kon (hGITR-hIgG [2]): 2.33e+06 M⁻¹ s⁻¹
- Kd (hGITR-hIgG [3]): 0.012 nM

B6: 1D8 (antibody, V domains shown)
VH: QVTLKESGPGILKPSQTLSLTCSFSGFSLSTSGMGVGWIRQPSGKGLEWLAHIWWDDDKYYSPSLKSQLTISKDTSRNQVFLKITSLDTADTATYYCVRSYYYGSSGAMDYWGQGTSVTVSS
VL: DIVMTQTPLSLPVSLGDQASISCRSSQSLVHSDGNTYLHWYLQKPGQSPKLLIYKVSKRFSGVPDRFSGSGSGTDFTLKISRVEAEDLGVYFCSQSTHVPPTFGGGTKLEIKR
notes: Parental rodent anti-human GITR monoclonal antibody from a hybridoma; kappa VL; also called 1D8.B5
- proliferation of naïve CD4+ T cells, mean, at 0.4 ng/mL Ab [1]: 60800
- proliferation of naïve CD4+ T cells, mean, at 0.9 ng/mL Ab [1]: 64800
- proliferation of naïve CD4+ T cells, mean, at 2.2 ng/mL Ab [1]: 78500
- proliferation of naïve CD4+ T cells, mean, at 5.2 ng/mL Ab [1]: 98200
- proliferation of naïve CD4+ T cells, mean, at 12.6 ng/mL Ab [1]: 115000
- proliferation of naïve CD4+ T cells, mean, at 30.1 ng/mL Ab [1]: 112000
- proliferation of naïve CD4+ T cells, mean, at 72.3 ng/mL Ab [1]: 103000
- proliferation of naïve CD4+ T cells, mean, at 173.6 ng/mL Ab [1]: 91000
- koff (hGITR-hIgG [2]): 0.000196 s⁻¹
- kon (hGITR-hIgG [2]): 428000 M⁻¹ s⁻¹
- Kd (hGITR-hIgG [3]): 0.458 nM

Now from value to binder:

- proliferation of naïve CD4+ T cells, mean, at 0.4 ng/mL Ab [1]: 52300
- proliferation of naïve CD4+ T cells, mean, at 0.9 ng/mL Ab [1]: 50700
- proliferation of naïve CD4+ T cells, mean, at 2.2 ng/mL Ab [1]: 59800
- proliferation of naïve CD4+ T cells, mean, at 5.2 ng/mL Ab [1]: 71400
- proliferation of naïve CD4+ T cells, mean, at 12.6 ng/mL Ab [1]: 86200
- proliferation of naïve CD4+ T cells, mean, at 30.1 ng/mL Ab [1]: 95300
- proliferation of naïve CD4+ T cells, mean, at 72.3 ng/mL Ab [1]: 92400
- proliferation of naïve CD4+ T cells, mean, at 173.6 ng/mL Ab [1]: 96200
- proliferation of naïve CD4+ T cells, mean, at 416.7 ng/mL Ab [1]: 89800
- proliferation of naïve CD4+ T cells, mean, at 1000.0 ng/mL Ab [1]: 97300
- koff (hGITR-hIgG [2]): 0.0002 s⁻¹
- kon (hGITR-hIgG [2]): 801000 M⁻¹ s⁻¹
- Kd (hGITR-hIgG [3]): 0.25 nM
B1: 35D8 (antibody, V domains shown)
VH: EVQLQESGPSLVKPSQTLSLTCSVTGDSITSGYWNWIRKFPGNKLEYMGYISYSGSTYYNPSLRGRISITRDTSKSQYYLQLSSVTTEDTATYYCSRRHLGSGYGWFAYWGQGTLVTVSA
VL: DIVMTQSHKFMSTSVGDRVSITCKASQDVNTAVAWYQQKPGQSPKLLIYWASTRHTGVPDRFTGSGSGTDYALTINSVQAEDLALYYCQQHSYTPPWTFGGGTKLEIRR
notes: Parental rodent anti-human GITR monoclonal antibody from a hybridoma; kappa VL; also called 35D8.B10

- proliferation of naïve CD4+ T cells, mean, at 0.4 ng/mL Ab [1]: 58500
- proliferation of naïve CD4+ T cells, mean, at 0.9 ng/mL Ab [1]: 57000
- proliferation of naïve CD4+ T cells, mean, at 2.2 ng/mL Ab [1]: 67600
- proliferation of naïve CD4+ T cells, mean, at 5.2 ng/mL Ab [1]: 79600
- proliferation of naïve CD4+ T cells, mean, at 12.6 ng/mL Ab [1]: 90500
- proliferation of naïve CD4+ T cells, mean, at 30.1 ng/mL Ab [1]: 94700
- proliferation of naïve CD4+ T cells, mean, at 72.3 ng/mL Ab [1]: 98600
- proliferation of naïve CD4+ T cells, mean, at 173.6 ng/mL Ab [1]: 96900
- proliferation of naïve CD4+ T cells, mean, at 416.7 ng/mL Ab [1]: 86900
- proliferation of naïve CD4+ T cells, mean, at 1000.0 ng/mL Ab [1]: 87500
- koff (hGITR-hIgG [2]): 7e-06 s⁻¹
- kon (hGITR-hIgG [2]): 1.57e+06 M⁻¹ s⁻¹
- Kd (hGITR-hIgG [3]): ≤ 0.005 nM
B4: 31H6 (antibody, V domains shown)
VH: QVTLKESGPGILQPSQTLSLTCTFSGFSLSTYGVGVGWIRQPSGKGLEWLANIWWDDDKYYNPSLKNRLTISKDTSNNQAFLKITNVDTAETATYYCAQIKEPRDWFFEFWGPGTMVSVSS
VL: DIQMTQTPSSMPASLGERVTIFCRASQGVNNYLTWYQQKPDGTIKPLIFYTSNLQSGVPSRFSGSGSGTDYSLSISSLEPEDFAMYYCQQYHGFPNTFGAGTKLELKR
notes: Parental rodent anti-human GITR monoclonal antibody from a hybridoma; kappa VL; also called 31H6.B7

- proliferation of naïve CD4+ T cells, mean, at 0.4 ng/mL Ab [1]: 58700
- proliferation of naïve CD4+ T cells, mean, at 0.9 ng/mL Ab [1]: 62000
- proliferation of naïve CD4+ T cells, mean, at 2.2 ng/mL Ab [1]: 73400
- proliferation of naïve CD4+ T cells, mean, at 5.2 ng/mL Ab [1]: 77800
- proliferation of naïve CD4+ T cells, mean, at 12.6 ng/mL Ab [1]: 90200
- proliferation of naïve CD4+ T cells, mean, at 30.1 ng/mL Ab [1]: 87000
- proliferation of naïve CD4+ T cells, mean, at 72.3 ng/mL Ab [1]: 83500
- proliferation of naïve CD4+ T cells, mean, at 173.6 ng/mL Ab [1]: 87500
- proliferation of naïve CD4+ T cells, mean, at 416.7 ng/mL Ab [1]: 85700
- proliferation of naïve CD4+ T cells, mean, at 1000.0 ng/mL Ab [1]: 89400
- koff (hGITR-hIgG [2]): 0.000146 s⁻¹
- kon (hGITR-hIgG [2]): 1.31e+06 M⁻¹ s⁻¹
- Kd (hGITR-hIgG [3]): 0.111 nM
B5: 17F10 (antibody, V domains shown)
VH: EVKLVESGGGFVKPGGSLKLSCAASGFTVRNYAMSWVRQTPEKRLEWVASISTGDRSYLPDSMKGRFTISRDNARNILYLQMSSLRSEDTAIYYCQRYFDFDSFAFWGQGTLVTVSA
VL: DIQMTQTPSSLSASLGDRVTISCRASQDINNFLNWYQQKPDGSLKLLIYYTSKLHSGVPSRFSGSGSGTDFSLTISNLDQEDVATYFCQQGHTLPPTFGGGTKLEVKR
notes: Parental rodent anti-human GITR monoclonal antibody from a hybridoma; kappa VL; also called 17F10.B1
